Assay results reported in PMC5339220.

Assays:
[1] = molecular target: T1, ComED58E D58E (Streptococcus pneumoniae D39) (UniProt A0A0H2ZLR3); experiment: EMSA; conditions: EMSA: 1x LightShift binding buffer, 1 ug poly(dI-dC), 2.5% glycerol, 0.05% NP-40, 5 mM Mn2+, 5 mM Zn2+, 2-4 ug protein, 1 ng probe, 20 ul, 37 C, 30 min; pH not …
T1 sequence: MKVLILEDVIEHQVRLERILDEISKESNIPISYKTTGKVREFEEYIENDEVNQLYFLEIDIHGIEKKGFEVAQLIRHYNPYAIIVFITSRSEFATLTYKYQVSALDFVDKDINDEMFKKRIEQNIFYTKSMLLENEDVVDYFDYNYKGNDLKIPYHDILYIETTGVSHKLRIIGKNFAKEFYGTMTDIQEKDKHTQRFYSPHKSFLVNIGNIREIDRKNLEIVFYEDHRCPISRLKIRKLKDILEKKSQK

[2] = molecular target: CSP1 (UniProt P60243); experiment: EMSA; conditions: EMSA: 1x LightShift binding buffer, 1 ug poly(dI-dC), 2.5% glycerol, 0.05% NP-40, 5 mM Mn2+, 5 mM Zn2+, 2-4 ug protein, 1 ng probe, 20 ul, 37 C, 30 min; pH not …

TACACATCTGCTTCTAAAATATTGTTAGAAAACGATTTGACTGTCCTGATCAATTTGTCATGTTCTTATTTCATTTTACTATATTTTTGGTTCGCGGGAAGTCTACTAAGATACTTAAAGATGCAGATAGTGAAAAAAGGTGTAGACATTACCGTAAAAAAGTGATATAATCGTAAGATGTTCAATGTATAGGTGTTAATCATGAGTAGACGTTTTAA (double strand) [C2 probe (cps promoter)]
binding [1]: binds
binding [2]: no binding
